Experimental data from publication PMC9525012, “Characterization of sabatolimab, a novel immunotherapy with immuno-myeloid activity directed against TIM-3 receptor” (Immunotherapy Advances, 2022).
Values joined by “and” are separate entries in the source; they are usually repeats but may differ in a detail not shown here. Equal entries are not always repeated.

Legend:
[1] = biological target: human TIM-3-Fc fusion protein (human) (UniProt Q8TDQ0); experiment: other; competition with SULFO-TAG galectin-9, MSD
[2] = biological target: T1, recombinant human TIM-3/His (human, UniProt Q8TDQ0 22-202); experiment: SPR; Biacore; sabatolimab captured (~50 RU) by a human Fab capture antibody amine-coupled on a CM5 chip; TIM-3/His as analyte, 90 nM diluted 1:3, seven concentrations, HBS-EP+ buffer; 1:1 binding model, double reference subtraction; settings: both partners purified
T1 construct: T-cell immunoglobulin domain and mucin domain-3 (TIM-3), human; Probably the extracellular domain (surmised); also called human recombinant TIM-3; source: bought: Sino Biological Inc

[3] = biological target: cynomolgus monkey TIM-3 expressed on 300.19 cells (cynomolgus monkey); experiment: flow cytometry on cells; 300.19 cells expressing human or cynomolgus TIM-3 incubated with titrated sabatolimab at 4°C for 4 hours; PE anti-hIgG secondary; Kd from best-fit binding curves (GraphPad Prism)
[4] = biological target: T2, human TIM-3 expressed on 300.19 cells (human, UniProt Q8TDQ0 22-301); experiment: as above; settings: one partner purified
T2 construct: TIM-3, human, expressed on the surface of 300.19 cells; Also used for the functional rows on cells that express human TIM-3 (Raji hTIM-3 o.e., HNT-34, dendritic cells); source: 300.19 cells engineered to express human TIM-3 (lab of Gordon Freeman)

Row | Molecule | IC50 [1] [nM] | Kd [2] | Kd [3] [nM] | Kd [4] [nM]
1 | sabatolimab Fab'2 | 9.81 | – | – | –
2 | Sabatolimab, humanized anti-TIM-3 monoclonal antibody (hIgG4, S228P) (antibody, V domains shown, whole heavy chain as printed; whole kappa light chain as printed; IgG4/kappa; humanized from the murine monoclonal antibody 22C1; also called MBG453; sabatolimab whole antibody; source: CHO cells, transiently produced (told of the ten selected humanized clones)) VH: QVQLVQSGAEVKKPGSSVKVSCKASGYTFTSYNMHWVRQAPGQGLEWMGDIYPGNGDTSYNQKFKGRVTITADKSTSTVYMELSSLRSEDTAVYYCARVGGAFPMDYWGQGTTVTVSS VL: AIQLTQSPSSLSASVGDRVTITCRASESVEYYGTSLMQWYQQKPGKAPKLLIYAASNVESGVPSRFSGSGSGTDFTLTISSLQPEDFATYFCQQSRKDPSTFGGGTKVEIKR | – | 0.176 nM and 0.162 nM and 0.163 nM | 0.9 | 0.5 ± 0.1
